# Source: US20240327804A1, “CONJUGATES AND METHODS OF USE THEREOF” (Regents of the University of Minnesota, priority 2023, published 2024)
# B1: unfarnesylated αEpCAM-Fn3 CSANs (αEpCAM-Fn3-DHFR^2-CVIA oligomerized by bisMTX) (designed binder)
# chain: MDYKDDDDKASSSDSPRNLEVTNATPNSLTISWDNSNYASYYRITYGETGGNSPSQELTVPGSTYNATISGLKPGQDYIITVYAVTYRDNYSYSNLISINYRSEIDKPSQGSGGSGGGGSGGGGSGGGGSGGGGSGGGGSGGGGSGGGGSGGGGSGGELGGISLIAALAVDRVIGMENAMPWNLPADLAWFKRNTLNKPVIMGRHTWESIGRPLPGRKNIILSSQPGTDDRVTWVKSVDEAIAAAGDVPEIMVIGGGRVYEQFLPKAQKLYLTHIDAEVEGDTHFPDYEPDDWESVFSEFHDADAQNSHSYSFEILERRGGISLIAALAVDRVIGMENAMPWNLPADLAWFKRNTLNKPVIMGRHTWESIGRPLPGRKNIILSSQPGTDDRVTWVKSVDEAIAAAGDVPEIMVIGGGRVYEQFLPKAQKLYLTHIDAEVEGDTHFPDYEPDDWESVFSEFHDADAQNSHSYSFEILERRGGSGGGSGGHHHHHHGGSGGSGGKKKKKKTCVIA
# modifications: Non-specific NHS-fluorescein label on amines; monomers joined non-covalently into a predominantly octameric ring by bisMTX; the letters give one monomer.
# notes: Fn3-DHFR^2 fusion nanoring formed with bisMTX; 'predominantly octameric'; also called anti-EpCAM-C5-Fn-1DD-CVIA
# B2: non-targeting DHFR^2-CVIA CSANs (other)
# chain: GISLIAALAVDRVIGMENAMPWNLPADLAWFKRNTLNKPVIMGRHTWESIGRPLPGRKNIILSSQPGTDDRVTWVKSVDEAIAAAGDVPEIMVIGGGRVYEQFLPKAQKLYLTHIDAEVEGDTHFPDYEPDDWESVFSEFHDADAQNSHSYSFEILERRGGISLIAALAVDRVIGMENAMPWNLPADLAWFKRNTLNKPVIMGRHTWESIGRPLPGRKNIILSSQPGTDDRVTWVKSVDEAIAAAGDVPEIMVIGGGRVYEQFLPKAQKLYLTHIDAEVEGDTHFPDYEPDDWESVFSEFHDADAQNSHSYSFEILERRGGSGGSGGDYKDDDDKGGSGGSGGKKKKKKTCVIA
# modifications: Non-specific NHS-fluorescein label on amines; monomers joined non-covalently into a predominantly octameric ring by bisMTX; the letters give one monomer.
# notes: Control nanoring without targeting domain, unfarnesylated; 'predominantly octameric'
# B3: DHFR^2-CVIA CSANs: non-targeting unfarnesylated control CSANs from DHFR^2-CVIA protein (protein)
# chain: B2 chain
# B4: αCD133-scFv-DHFR^2 CSANs: fluorescein-labeled CSANs from αCD133-scFv-DHFR^2 protein (protein)
# chain: MDIVLSQSPAIMSASPGEKVTISCSASSSVSYMYWYQQKPGSSPKPWIYRTSNLASGVPARFSGSGSGTSYSLTISSMEAEDAATYYCQQYHSYPPTFGAGTKLELKSSGGGGSGGGGGGSSRSSLEVKLVESGPELKKPGETVKISCKASGYTFTDYSMHWVNQAPGKGLKWMGWINTETGEPSYADDFKGRFAFSLETSASTAYLQINNLKNEDTATYFCATDYGDYFDYWGQGTTLTVSSELGGSGGGSGGGSGGMISLIAALAVDRVIGMENAMPWNLPADLAWFKRNTLNKPVIMGRHTWESIGRPLPGRKNIILSSQPGTDDRVTWVKSVDEAIAAAGDVPEIMVIGGGRVYEQFLPKAQKLYLTHIDAEVEGDTHFPDYEPDDWESVFSEFHDADAQNSHSYSFEILERRGMISLIAALAVDRVIGMENAMPWNLPADLAWFKRNTLNKPVIMGRHTWESIGRPLPGRKNIILSSQPGTDDRVTWVKSVDEAIAAAGDVPEIMVIGGGRVYEQFLPKAQKLYLTHIDAEVEGDTHFPDYEPDDWESVFSEFHDADAQNSHSYSFEILERRGGSGGGSGGGSGGDYKDDDDK
# Legend:
# [1] = molecular target: T1, epithelial cell adhesion molecule (EpCAM) on HT29-R cells (human, UniProt P16422 24-314); experiment: flow cytometry, 0.5 µM fluorescein-labeled CSANs on HT29-R (EpCAM+) cells, 1 h at 4° C.
# T1 construct: whole, on cells
# T1 sequence (looked up): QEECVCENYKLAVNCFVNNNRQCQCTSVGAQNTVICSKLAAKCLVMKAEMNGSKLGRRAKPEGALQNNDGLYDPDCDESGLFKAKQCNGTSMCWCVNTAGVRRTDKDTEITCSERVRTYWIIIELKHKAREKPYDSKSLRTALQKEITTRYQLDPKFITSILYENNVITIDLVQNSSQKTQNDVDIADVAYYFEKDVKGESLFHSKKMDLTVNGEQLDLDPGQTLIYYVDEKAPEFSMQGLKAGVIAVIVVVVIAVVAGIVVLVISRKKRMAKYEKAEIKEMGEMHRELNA
# Protocol: (§1) The binding specificity of the CSANs to the corresponding cellular receptors was studied by flow cytometry. A431-R cells were chosen as the EGFR⁺ cell line; SK-BR-3-R cells were chosen as the HER2⁺ cell line; HT-29-R cells were chosen as the EpCAM⁺ cell line; HT29-R cells were chosen as the CD133⁺ cell line. The cells were harvested and washed with DPBS buffer (Gibco, Cat: 14190144), and aliquots of […] were then resuspended in 100 μL of DPBS solutions containing 0.5 μM of fluorescein-labeled CSANs and incubated for 1 h at 4° C. The cells were then pelleted, washed, and resuspended in 0.5 mL of cold DPBS and analyzed using an LSR II flow cytometer (BD Biosciences) at the University Flow Cytometry Resource (UFCR). For the cell surface modification with farnesylated CSANs, the sender cells were collected from cell culture, pelleted at 350 g for 5 min, and washed with 1 mL DPBS. Aliquots of 10⁵ cells were then incubated in 100 μL of DPBS solutions containing the desired concentrations of fluorescein-labeled farnesylated CSANs for at least 1 h at room temperature with rotation and washed twice with 1 mL cold DPBS to remove unbound CSANs. The modified cells were then resuspended in 0.5 mL of cold DPBS and analyzed using an LSR II flow cytometer (BD Biosciences) at the University Flow Cytometry Resource (UFCR).
# [2] = molecular target: T1, epithelial cell adhesion molecule …; experiment: flow cytometry, fluorescein-labeled CSANs on HT29-R cells, 1 h at 4° C.
# Protocol: as §1
# [3] = molecular target: T2, human epidermal growth factor receptor 2 (HER2) on SK-BR-3-R cells (human, UniProt P04626 23-1255); experiment: flow cytometry, fluorescein-labeled CSANs on SK-BR-3-R cells, 1 h at 4° C.
# T2 construct: whole, on cells
# Protocol: as §1
# [4] = molecular target: T3, epidermal growth factor receptor (EGFR) on A431-R / MDA-MB-231-R cells (human, UniProt P00533 25-1210); experiment: flow cytometry, fluorescein-labeled CSANs on A431-R cells, 1 h at 4° C.
# T3 construct: whole, on cells
# Protocol: as §1
# [5] = tested on: receptor expressing target cells (A431-R, SK-BR-3-R, HT29-R); experiment: Binding specificity of CSANs to cellular receptors by flow cytometry; conditions: unfarnesylated fluorescein-labeled CSANs, 0.5 μM, 1 h, 4° C.
# Protocol: as §1, with “EGFR^+” for “EGFR⁺”, “HER2^+” for “HER2⁺”, “EpCAM^+” for “EpCAM⁺”, “CD133^+” for “CD133⁺”, “10^5” for “10⁵”
# CD133+ HT29-R cells = experiment: Binding of CSANs to CD133+ HT29-R cells by flow cytometry; conditions: fluorescein-labeled CSANs
# Protocol: The Bangs beads (Bangs Laboratories, Cat: 815A) were collected and resuspended in PBS, and then stained with the fluorescently labeled antibody that detects the corresponding cell surface receptor (anti-EGFR-BV421, Biolegend, Cat: 352911; anti-HER2-BV421, Biolegend, Cat: 324420; anti-EpCAM-AF647, Biolegend, Cat: 118211) at 4° C. for >30 min, followed by wash steps. 100,000 of the cancer cells were collected and stained with the corresponding antibody at 4° C. for >30 min, followed by wash steps. The cells and beads were analyzed by flow cytometry. The calibration curve was generated based on the MFI of the beads and the corresponding antibody binding capacity of the beads. The receptor number was calculated based on the MFI of the cells stained with the antibody and the previously generated calibration curve. […]
# The binding specificity of the CSANs to the corresponding cellular receptors was studied by flow cytometry. […] The cells were then pelleted, washed, and resuspended in 0.5 mL of cold DPBS and analyzed using an LSR II flow cytometer (BD Biosciences) at the University Flow Cytometry Resource (UFCR). […] The modified cells were then resuspended in 0.5 mL of cold DPBS and analyzed using an LSR II flow cytometer (BD Biosciences) at the University Flow Cytometry Resource (UFCR).
molecule,measurement,setting,value
B1,binding result,[1],binds
B2,binding result,[2],no binding (tested: 0.5 µM)
same,binding result,[3],no binding (tested: 0.5 µM)
same,binding result,[4],no binding (tested: 0.5 µM)
B3,binding to receptor expressing target cells,[5],no observable binding
B4,binding to HT29-R cells,CD133+ HT29-R cells,specifically bind
